# Assay results as given in patent EP4714976A1 (Sunshine Lake Pharma Co., Ltd., dated 2026).
# Positions count from the first letter of the chain named.
# B1: 3E3 scFv-Fc (Fc fusion)
# chain: QVQLQQPGAVLVKPGASVRMSCKASGYTFPYYNVHWVKRTPGQGLEWIGLIYPDNGDTSYNQKFTGKATLTADTSSSTAYMQLSSLTSEDSAVYYCARGGLDYWGQGTTLTVSAGGGGSGGGGSGGGGSDVQITQSPASLSASVGETVTITCGASENIYGALNWYQRKQGKSPQLLIYGATNLADGMSSRFSGSGSGRQYSLKISSLHPDDVATYYCQNVLSTPYTFGGGTKLEIKESKYGPPCPPCPAPEAAGGPSVFLFPPKPKDTLMISRTPEVTCVVVDVSQEDPEVQFNWYVDGVEVHNAKTKPREEQFNSTYRVVSVLTVLHQDWLNGKEYKCKVSNKGLPSSIEKTISKAKGQPREPQVYTLPPSQEEMTKNQVSLTCLVKGFYPSDIAVEWESNGQPENNYKTTPPVLDSDGSFFLYSKLTVDKSRWQEGNVFSCSVMHEALHNHYTQKSLSLSLG
# notes: scFv-Fc dimer
# B2: 3A8 scFv-Fc (Fc fusion)
# chain: QVQLQQSGAELVKPGASVKMSCKASGYTFTIYNIHWVRQTPGQGLEWIGLIYPDNGDTSYNQKFKAKATLTADKSSSTAYMQLSSLTSEDSAVYYCARGGFDYWGQGTSLTVSSGGGGSGGGGSGGGGSDIVMTQSQKFMSTSVGDRVSVTCKASQNVGTNVAWYQQKPGQSPKALIYSASYRYSGVPDRFTGSGSGTDFTLTISNVQAEDLADYFCQQHYSTPYTFGGGTKLEMKESKYGPPCPPCPAPEAAGGPSVFLFPPKPKDTLMISRTPEVTCVVVDVSQEDPEVQFNWYVDGVEVHNAKTKPREEQFNSTYRVVSVLTVLHQDWLNGKEYKCKVSNKGLPSSIEKTISKAKGQPREPQVYTLPPSQEEMTKNQVSLTCLVKGFYPSDIAVEWESNGQPENNYKTTPPVLDSDGSFFLYSKLTVDKSRWQEGNVFSCSVMHEALHNHYTQKSLSLSLG
# notes: scFv-Fc dimer
# B3: 3C7-VH2-VL1 (antibody, human IgG1, kappa, V domains shown)
# VH: QVQLVQSGAEVKKPGASVKVSCKASGYIFRNYYIHWVRQAPGQGLEWMGAIYPDNGDTSYNQRFKVRATLTADTSTSTVYMELSSLRSEDTAVYYCARAFTYWGQGTTVTVSS
# VL: DIQMTQSPSSLSASVGDRVTITCGASENIYGALNWYQQKPGKAPKLLIYGATNLADGVPSRFSGSGSGTDYTLTISSLQPEDVATYYCQNVLSTPYTFGGGTKVEIKR
# notes: humanized IgG1
# B4: 3C7-VH3-VL1 (antibody, human IgG1, kappa, V domains shown)
# VH: B3 VH with R38K
# VL: B3 VL
# notes: humanized IgG1
# B5: 3C7-VH2-VL3 (antibody, human IgG1, kappa, V domains shown)
# VH: B3 VH
# VL: B3 VL with Q38R, A43S, V104L
# notes: humanized IgG1
# B6: 3C7-VH3-VL2 (antibody, human IgG1, kappa, V domains shown)
# VH: B3 VH with R38K
# VL: B3 VL with Q38R, V83F, V104L
# notes: humanized IgG1
# B7: 3C7-VH3-VL3 (antibody, human IgG1, kappa, V domains shown)
# VH: B3 VH with R38K
# VL: B3 VL with Q38R, A43S, V104L
# notes: humanized IgG1
# B8: 3C7-VH3-VL0 (antibody, human IgG1, kappa, V domains shown)
# VH: B3 VH with R38K
# VL: B3 VL with G24R, Y71F, V83F
# notes: humanized IgG1
# Target: T1, recombinant cynomolgus monkey FGFR2b (cynomolgus monkey)
# T1 construct: extracellular domain; bought; also called cynomolgus macaque FGFR2b
# Assay: ELISA, antibody 1ug/mL
row,OD (450 nm) value,Binder
1,3.09,B1

# Target: T2, human FGFR2b (Kaixia Biotechnology, catalog number FGR-HM1BB) (human, UniProt P21802-3 22-378)
# T2 construct: extracellular domain; bought; also called hFGFR2b; human FGFR2b protein
# Assay: BLI, antibody on AHC2 sensor
# T2 sequence (P21802 other isoform, or with tags, fused parts or gaps): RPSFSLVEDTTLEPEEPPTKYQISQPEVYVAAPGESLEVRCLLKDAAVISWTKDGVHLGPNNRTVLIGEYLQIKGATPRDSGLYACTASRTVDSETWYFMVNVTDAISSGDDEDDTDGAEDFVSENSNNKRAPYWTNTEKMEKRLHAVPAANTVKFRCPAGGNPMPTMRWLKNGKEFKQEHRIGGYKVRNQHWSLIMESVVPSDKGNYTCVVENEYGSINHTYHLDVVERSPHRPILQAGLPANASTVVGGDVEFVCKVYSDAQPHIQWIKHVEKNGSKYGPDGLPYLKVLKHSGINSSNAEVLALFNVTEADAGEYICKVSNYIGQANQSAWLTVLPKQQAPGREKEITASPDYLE
Kd,koff,kon,Binder
3.48 nM,0.0009 s⁻¹,259000 M⁻¹ s⁻¹,B2
8.18 nM,0.00184 s⁻¹,225000 M⁻¹ s⁻¹,B1

# Target: T2, human FGFR2b (Kaixia Biotechnology, …)
# Assay: BLI, antibody on AHC2 sensor
# Remark: another data set of the same source
Kd,koff,kon,Binder
2.92 nM,0.000718 s⁻¹,246000 M⁻¹ s⁻¹,B3
2.46 nM,0.00106 s⁻¹,429000 M⁻¹ s⁻¹,B4
2.77 nM,0.000754 s⁻¹,272000 M⁻¹ s⁻¹,B5
2.48 nM,0.000829 s⁻¹,334000 M⁻¹ s⁻¹,B6
2.43 nM,0.000777 s⁻¹,320000 M⁻¹ s⁻¹,B7
2.51 nM,0.000831 s⁻¹,331000 M⁻¹ s⁻¹,B8

# Target: T3, FGFR2b on KATO III cells (human, UniProt P21802-3 22-822)
# T3 construct: whole, on cells; also called KATO III cells that overexpress FGFR2b
# Assay: flow cytometry, KATO III cells
# T3 sequence (P21802 other isoform, or with tags, fused parts or gaps): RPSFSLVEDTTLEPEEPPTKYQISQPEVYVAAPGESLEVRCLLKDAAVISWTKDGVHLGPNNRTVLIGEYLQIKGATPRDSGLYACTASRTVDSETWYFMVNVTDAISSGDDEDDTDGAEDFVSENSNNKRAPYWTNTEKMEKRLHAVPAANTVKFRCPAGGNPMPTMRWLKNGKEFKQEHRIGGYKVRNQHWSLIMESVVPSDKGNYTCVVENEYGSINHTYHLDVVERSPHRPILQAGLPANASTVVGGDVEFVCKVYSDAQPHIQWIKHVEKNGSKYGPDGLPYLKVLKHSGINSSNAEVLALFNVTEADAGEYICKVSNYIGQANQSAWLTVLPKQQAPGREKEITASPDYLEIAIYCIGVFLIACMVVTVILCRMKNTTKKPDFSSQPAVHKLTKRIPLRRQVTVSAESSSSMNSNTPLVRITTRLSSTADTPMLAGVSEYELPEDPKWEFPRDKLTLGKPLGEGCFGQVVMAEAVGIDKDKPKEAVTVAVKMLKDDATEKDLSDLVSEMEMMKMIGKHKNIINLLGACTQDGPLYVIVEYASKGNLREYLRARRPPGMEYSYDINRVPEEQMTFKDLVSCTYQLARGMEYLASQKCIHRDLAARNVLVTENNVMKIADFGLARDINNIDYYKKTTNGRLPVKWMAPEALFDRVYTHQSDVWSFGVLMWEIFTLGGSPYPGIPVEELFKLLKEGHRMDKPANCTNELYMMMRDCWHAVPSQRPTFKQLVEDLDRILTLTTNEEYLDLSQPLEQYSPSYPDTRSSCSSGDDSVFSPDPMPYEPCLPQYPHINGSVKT
row,EC50,Binder
1,0.199 µg/mL,B2
2,0.376 µg/mL,B1

# Target: T3, FGFR2b on KATO III cells
# Assay: flow cytometry, KATO III cells
# Remark: another data set of the same source
row,EC50,Binder
1,0.302 µg/mL,B3
2,0.446 µg/mL,B4
3,0.572 µg/mL,B5
4,0.523 µg/mL,B6
5,0.536 µg/mL,B7
6,0.624 µg/mL,B8

# Target: T2, human FGFR2b (Kaixia Biotechnology, …)
# Assay: ELISA, FGFR2b coated at 1 µg/ml
row,EC50,Binder
1,0.0278 µg/mL,B2
2,0.0273 µg/mL,B1
